Reference: US20180066242A1

Biological target: dCas9(C)-FKBP-2×NLS-VP64 (split-4, N863A) (Streptococcus pyogenes)
Test: cell-based or functional assay

Substance: dCas9(N)-FRB-2×NES (split-4, D10A) (from UniProt Q99ZW2 1-535; P42345 2021-2113; Q05397 518-525)
- ASCL1 mRNA by qPCR, +rapamycin/-rapamycin ratio: 77
- IL1RN mRNA by qPCR, +rapamycin/-rapamycin ratio: 649
- MYOD1 mRNA by qPCR, +rapamycin/-rapamycin ratio: 29
